# Laboratory results as given in patent US20090068158A1, “THYMIDYLATE KINASE MUTANTS AND USES THEREOF” (priority 2005, published 2009).
# Where a chain is given by its changes, count along the chain named. Numbers in names are those of the source. Entries after “also recorded” stand apart in the source; their conditions may differ.
# B1: wild-type tmpk: wild-type human thymidylate kinase overexpressed by LV transduction, comparator (protein, UniProt P23919 2-212, looked up)
# Thymidylate kinase: AARRGALIVLEGVDRAGKSTQSRKLVEALCAAGHRAELLRFPERSTEIGKLLSSYLQKKSDVEDHSVHLLFSANRWEQVPLIKEKLSQGVTLVVDRYAFSGVAFTGAKENFSLDWCKQPDVGLPKPDLVLFLQLQLADAAKRGAFGHERYENGAFQERALRCFHQLMKDTTLNWKMVDASKSIEAVHEDIRVLSEDAIRTATEKPLGELWK
# B2: F105Y: modified human thymidylate kinase (tmpk), F to Y mutation at amino acid position 105 (SEQ ID NO: 11, 21) (protein, UniProt P23919 2-212, looked up, variant F105Y)
# Thymidylate kinase: B1 Thymidylate kinase with F104Y
# B3: R200A: modified human tmpk, R to A mutation at amino acid position 200 (SEQ ID NOS: 15 and 16) (protein, UniProt P23919 2-212, looked up, variant R200A)
# Thymidylate kinase: B1 Thymidylate kinase with R199A
# How the values were obtained:
# Jurkat cells [1] = assay: AZT sensitivity of LV-tmpk-transduced Jurkat cells (MTT cell viability assay); assay type: cell-based, human; conditions: for cell viability upon addition of AZT (in words), Example 15: clonal Jurkat cells, AZT up to 1 mM, 4 days
# Method: Transduced Jurkat cells and the single-cell clones were seeded in 96 well plates (2×10^5/well) in 200 μl of medium containing increasing concentrations of AZT (0, 1, 10 and 100 μM). The medium was changed daily. […] Data are expressed as mean±standard error of mean (SEM).
# To examine the AZT-mediated celikilling activity of tmpk cDNA, each of transduced cells were incubated with the increasing concentration of AZT. After incubating both non-transduced and LV-transduced cells with AZT for […], cell viability was determined using MTT assay (FIG. 4A).
# Transduced Jurkat cells and single-cell clones were seeded in 96 well plates (2×10^5 cells/well) in 200 μl of the RPMI medium described above with increasing concentrations of AZT (0, 0.1, 1, 10, 100 μM, and 1 mM). The medium was changed daily. After 4 days of culture, cell viability was determined by using Cell Titer 96 Aqueous One Solution Cell Proliferation Assay kit (Promega, Madison, Wis.).
# Jurkat cells [2] = assay: HPLC determination of intracellular AZT metabolites in cells treated with 100 μM AZT; assay type: cell-based, human
# Method: The cells were cultured in the presence of 100 μM AZT for 36 hrs. 10^7 cells were homogenized by sonication in 100 μl of 5% (w/v) trichloroacetic acid. The supernatant is collected after homogenate had been centrifuged at 10,000×g for 15 min at 4° C. The trichloroacetic acid was removed by extraction with an equal volume of 20% tri-n-octylamine in pentane. The neutralized aqueous fraction is directly injected into HPLC. Separation of AZT and its metabolites was performed on a C18 column (Waters) with a mobile phase composed of 0.2 M phosphate buffer containing 4 mM tetrabutylammonium hydrogen sulfate (pH 7.5) and acetonitrile in the ratio of 97:3 (v/v). The mobile phase was pumped at a flow rate of 1.5 ml/min. The UV absorbance was monitored at 270 nm. Five million cell equivalents were injected and analyzed in triplicate.
# Cells were cultured in the presence of 100 μM AZT for 36 h. 10^7 cells were homogenized by sonication in 100 μl of 5% (w/v) trichloroacetic acid (TCA). The supernatant was collected after centrifugation at 10,000×g for 15 min at 4° C. TCA was removed by extraction with an equal volume of 20% tri-n-octylamine in pentane. The neutralized aqueous fraction was directly injected into the HPLC machine (Waters, Milford. MA). Separation of AZT and its metabolites were performed on a C18 column (Waters), with a mobile phase composed of 0.2 M phosphate buffer containing 4 mM tetrabutylammonium hydrogen sulfate (pH 7.5) and acetonitrile in the ratio of 97:3 (v/v)^48 at a flow rate of 1.5 ml/min. The UV absorbance was monitored at 270 nm. Standards for each AZT-metabolite (AZT-MP, AZT-DP, and AZT-TP) were purchased from Moravek Biochemicals (Brea, Calif.). Five million cell equivalents were injected and analyzed in triplicate.
# Jurkat cells [3] = assay: AZT sensitivity in LV-TMPK (Lentigen) transduced Jurkat cells; assay type: cell-based, human; conditions: increasing concentrations of AZT
# Method: The function of tmpk was tested by assessing sensitivity to AZT (FIG. 21).
# Jurkat cells [4] = assay: Induction of apoptosis by 100 μM AZT in LV-tmpk-transduced Jurkat cells (annexin V staining); assay type: cell-based, human; conditions: 4 days; for early apoptotic cell index in response to AZT treatment: transduced Jurkat cells, n=3
# Method: Cells were seeded in 24 well plates (10^6/well) in 1 ml of medium with or without 100 μM of AZT. The medium was changed daily. After 4 days of culture, induction of apoptosis in the cells were analyzed by annexin-V staining according to the manufacturer's protocol (Annexin V-APC: BD Pharmingen). **, P<0.01, n=3. Data are expressed as mean±SEM.
# (§1) For evaluation of the induction of apoptosis, treated Jurkat clonal cells were stained with Annexin V. Briefly, cells were seeded in 24 well plates (10^6 cells/well) in 1 ml of medium with or without 100 μM AZT. After 4 days of culture, Annexin V staining was performed according to the manufacturer's protocol (Annexin V-APC: BD Pharmingen). For testing whether AZT-mediated cell killing depends on the cellular proliferation, indirubin-3′-monoxime (final concentration 5 μM, Sigma-Aldrich, St. Louis, Mo.) was added simultaneously with 100 μM AZT to the culture.
# (§2) To simplify comparative studies a relative apoptotic index was calculated. Here data obtained was normalized by dividing results from AZT treated cells in each condition by the results obtained without added AZT. Values were reported as fold increases. Statistical significance between groups was calculated by ANOVA.
# Jurkat cells [5] = assay: Loss of mitochondrial membrane potential after AZT (JC-1 staining, flow cytometry); assay type: cell-based, human; conditions: transduced Jurkat cells, 100 μM AZT
# Method: Cells (10^6 cells) treated with (shown (+) in figure) or without (−) 100 μM AZT were stained with JC-1 for […] at 37° C., and then were analyzed by flow cytometry. ***, P<0.001, n=3.
# (§3) Transduced cells […] were treated with 100 μM AZT for 4 days or left untreated. To detect changes in the mitochondrial inner membrane potential, the cells were incubated with 5,5′,6,6′-tetrachloro-1,1′,3,3′-tetraethylbenzimidazolylcarbocyanine iodide (JC-1, Molecular Probes Inc.) for 30 min at 37° C., and were then analyzed using a FACS Calibur. The activation of caspase-3 in cells was examined using the FACS Calibur following incubation with an FITC-labeled caspase 3 inhibitor peptide (FITC-DEVD-FMK, Calbiochem, San Diego, Calif.) for 1 hr at 37° C.
# Jurkat cells [6] = assay: AZT-induced apoptosis/cell killing under cell cycle arrest with indirubin-3'-oxime; assay type: cell-based, human
# Method: Cells were seeded in 24-well plates (10^6/well) in 1 ml of medium containing 0 (shown in AZT (−) in figure) or 100 μM of AZT (shown in AZT (+)) with or without 5 μM indirubin-3′-oxime (Figure (B) and (A), respectively). The medium was refreshed daily. After 2 days of culture, induction of apoptosis by AZT was analyzed by annexin V staining according to the manufacturer's protocol described. **, P<0.01, n=3. Data are expressed as mean±SEM.
# as §1, §2
# K562 cells = assay: Growth of transduced K562 cells xenografted into AZT-treated NOD/SCID mice; assay type: in vivo; conditions: for tumor size / final tumor volume: transduced K562 cells sc in NOD/SCID mice, four and a half weeks past injection
# Method: Female or male 5 to 8-week-old non-obese diabetic/severe combined immunodeficient (NOD/SCID) mice were purchased from Jackson Laboratory. Lentivirally-transduced or non-transduced K562 cells (20×10^6 cells) were resuspended in 0.5 mL Dulbecco's phosphate-buffered saline (D-PBS) per inoculum and injected subcutaneously (SC) into the right flanks of recipient mice. AZT treatment, which was administered intraperitoneally (IP) at the dose of 2.5 mg/kg/day, was started one day after injection and conducted for 14 days. In vivo tumor cell growth was monitored by measuring tumor size for up to 32 days post-inoculations. All experimental data were reproduced at least twice.
# Transduced K562 cells were affinity-purified by MACS using magnetic beads conjugated with an anti-human CD19 monoclonal antibody (Miltenyi Biotec Inc., Auburn, Calif.). The purity of the cells following isolation was evaluated by FACS Calibur. Non-obese diabetic/severe combined immunodeficiency (NOD/SCID) mice (5 to 8-weeks old, purchased from Jackson Laboratories, Bar Harbor, Me.) were maintained at the Animal Resource Centre at the Princess Margaret Hospital (Toronto, ON, Canada). The entire animal experimental procedure followed a protocol approved by the Animal Care Committee of the UHN. Experimental groups consisted of male and female NOD/SCID mice injected with 2×10^7 K562 cells (resuspended in 0.5 mL D-PBS; Oxoid, Basingstoke, England) that were either lentivirally-transduced (n=10 for each LV) or non-transduced (NT) (n=10). Injections were performed subcutaneously (sc) into the dorsal right flanks of recipient mice as previously described^49. One day after injection of the cells, half of the mice in each group (n=5) began receiving daily AZT injections, administered intraperitoneally (ip) at a dose of 2.5 mg/kg/day for 14 days. Tumor growth was measured by caliper and calculated as 0.5×length×width^2 (in mm^3) for up to […].
# Jurkat cells [7] = assay: Activation of caspase 3 by AZT (FITC-DEVD-FMK, flow cytometry); assay type: cell-based, human; conditions: clonal Jurkat cells, 100 μM AZT, 4 days
# Method: as §3
# primary human T cells = assay: Induction of apoptosis by AZT in transduced primary human T cells (annexin V); assay type: cell-based; conditions: 100 μM AZT, 4 days
# Method: Human T lymphocytes were isolated from PBMNCs contained within heparinized blood obtained from healthy human donors by Ficoll-Hypaque (GE Healthcare) separations. Mouse T cells were prepared from B cell-depleted splenocyte preparations using goat anti-mouse IgG beads (BioMag, Qiagen, Mississauga, ON). T cells were activated by using anti-CD3 and anti-CD28 coated beads (PMID: 12855580) in a ratio of 1:3 (cell:beads) with 20 IU/mL of recombinant human interleukin 2 (R&D Systems, Minneapolis, Minn.) for 3 days. Cells were infected with concentrated virus stocks for 3 h on ice using an indicated MOI in the presence of 8 μg/ml protamine sulfate. Infected cells were then kept in culture for 5 days prior to evaluating gene transfer efficiency. Gene transfer efficiencies were measured by flow cytometry using a monoclonal anti-human CD19-antibody conjugated with phycoerythrin (PE) as described above. Induction of apoptosis following AZT-exposure was evaluated by Annexin V-staining as above.
# [8] = Enzymatic activity of tmpk mutants for AZT-MP; assay type: biochemical, human
molecule,measurement,setting,value
"Cc1cn([C@H]2C[C@H](N=[N+]=[N-])[C@@H](CO)O2)c(=O)[nH]c1=O [AZT, Zidovudine, reference compound]",IC50,"Jurkat cells [1]; Homo sapiens, 120 h, LV-tmpk mutant transduced Jurkat cells, AZT 0-100 μM, 5 days, read-out: IC50 of AZT for killing of transduced cells",2000 nM
same,intracellular ratio of AZT-TP to AZT-MP in non-transduced cells,"Jurkat cells [2]; non-transduced Jurkat cells, 100 μM AZT for 36 h",0.02
same,AZT sensitivity of transduced cells (in words),Jurkat cells [3],dose dependent killing
B1,"cell viability upon addition of AZT (in words), Example 15",Jurkat cells [1],limited cell killing
same,AZT sensitivity / cell killing of transduced cells (in words),"Jurkat cells [1]; transduced Jurkat cells, AZT up to 100 μM",non-sensitive to AZT up to 100 μM; also recorded: unaffected by AZT up to 100 μM
same,early apoptotic cell index in response to AZT treatment,Jurkat cells [4],6.2±0.3%
same,intracellular ratio of AZT-TP to AZT-MP,"Jurkat cells [2]; LV-transduced Jurkat cells, 100 μM AZT for 36 h",0.10
same,conversion of AZT-MP / accumulation of AZT-TP (in words),"Jurkat cells [2]; clonal Jurkat cells, 100 μM AZT 36 h",no significant increases in the accumulation of AZT-TP
same,loss of mitochondrial (inner) membrane potential after AZT treatment (in words),Jurkat cells [5],did not demonstrate a similar loss of mitochondrial inner membrane potential
same,apoptotic index with AZT in presence of indirubin-3'-monoxime (in words),"Jurkat cells [6]; clonal Jurkat cells, 100 μM AZT + 5 μM indirubin-3'-monoxime, 4 days",No significant increases
same,cells killed by AZT after cell cycle arrest,"Jurkat cells [6]; transduced Jurkat cells, indirubin-3'-oxime 5 μM, 100 μM AZT, 2 days",2%
same,"tumor growth under AZT (in words), Example 8/10","K562 cells; transduced K562 cells in NOD/SCID mice, AZT 2.5 mg/kg for two weeks",no significant reduction in tumor volume
same,tumor size / final tumor volume,K562 cells; AZT 2.5 mg/kg for two weeks,2000 mm^2
same,activation of caspase 3 by AZT (in words),Jurkat cells [7],"slight, but significant, increase"
B2,"cell viability upon addition of AZT (in words), Example 15",Jurkat cells [1],minimally viable
same,fold increase of apoptotic index by AZT-treatment,"Jurkat cells [4]; clonal Jurkat cells, normalized to no AZT",9.5±0.8 fold
same,early apoptotic cell index in response to AZT treatment,Jurkat cells [4],40.7±1.7%
same,loss of mitochondrial (inner) membrane potential after AZT treatment (in words),Jurkat cells [5],significant increase
same,fold increase of apoptotic index by AZT in presence of indirubin-3'-monoxime,"Jurkat cells [6]; clonal Jurkat cells, 100 μM AZT + 5 μM indirubin-3'-monoxime, 4 days, normalized to no AZT",2.3±0.4 fold
same,"tumor growth under daily AZT (in words), Example 15","K562 cells; 2×10^7 transduced K562 cells sc in NOD/SCID mice, AZT 2.5 mg/kg/day ip for two weeks, day 14",strongly inhibited; also recorded: suppression of tumor growth
same,tumor size / final tumor volume,K562 cells; AZT 2.5 mg/kg for two weeks,100-300 mm^2
same,fold increase in percentage of activated caspase 3-positive cells by AZT,Jurkat cells [7]; normalized to no AZT,4.6±0.1 fold
same,fold increase of apoptotic index by AZT,primary human T cells,4.0±0.3 fold
same,enzymatic activity / catalytic conversion compared to wild-type tmpk (in words),[8],substantially increased catalytic conversion of AZT; also recorded: superior enzymatic activity
B3,enzymatic activity / catalytic conversion compared to wild-type tmpk (in words),[8],superior enzymatic activity
